Source: patent publication US20140294834A1

Biological target: his tagged cMET (UniProt P08581)
Test: BLI (Fortebio Octet), antibody loaded on Protein A tips, his tagged cMET in solution, 1:1 fit

Kd: 1.2 nM
Substance: Onartuzumab (antibody)
